In US20180086841A1 (Merck Sharp & Dohme, published 2018):
Numbering of substitutions follows the chain as printed.

Key:
Experiment in all cases: flow cytometry on CHO-K1 transfectants, left sub-column
P44A = biological target: T1, P44A
T1 construct: also called hCD27 P44A
T1 receptor chain: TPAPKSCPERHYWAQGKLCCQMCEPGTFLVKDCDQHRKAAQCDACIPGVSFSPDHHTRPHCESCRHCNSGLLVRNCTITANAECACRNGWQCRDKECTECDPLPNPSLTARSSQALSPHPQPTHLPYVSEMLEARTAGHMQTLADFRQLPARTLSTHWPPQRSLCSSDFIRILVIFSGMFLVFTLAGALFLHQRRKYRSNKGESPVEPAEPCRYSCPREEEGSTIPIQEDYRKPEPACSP
Description: (§1) The hCD27 variants that were tested are listed. Amino acids correspond to the UniProt P26842-1 sequence. Amino acids 1-20 constitute the signal peptide. Binding is expressed as the geometric mean of the FITC signal, relative to antibody binding to hCD27, which was set at 100%.
(§2) The ability of several anti-hCD27 antibodies to bind to a series of hCD27 alanine mutants was determined using CHO-K1 cells, transiently transfected pCI-neo empty vector, pCI-neo.hCD27 and several pCI-neo.CD27Ala mutant constructs.
(§3) Detached cells were transferred to 96 wells round-bottomed well plates at approximately 1.2×10⁵ cells/well. After spinning down the cells, discarding the supernatants and re-suspending the cells in the residual volume, the primary antibodies were added and incubated for 30 minutes at 4° C. Cells were washed three times with DPBS/BSA 1%, followed by centrifugation, discarding of the supernatants and re-suspension in the residual volume. […] After washing once, antibody binding was detected using the HTS plate reader (FACS Canto II) and FlowJo software for data analysis. Debris, dead cells and doublets were excluded from the analysis. Binding was expressed as the geometric mean of the FITC signal, relative to antibody binding to hCD27, which was set at 100%.

D43A = biological target: T2, D43A
T2 construct: also called hCD27 D43A
T2 receptor chain: T1 receptor chain with D43A, A44P
Description: as §1, §2, §3

G16A = biological target: T3, G16A
T3 construct: also called hCD27 G16A
T3 receptor chain: T1 receptor chain with G16A, A44P
Description: as §1, §2, §3

K17A = biological target: T4, K17A
T4 construct: also called hCD27 K17A
T4 receptor chain: T1 receptor chain with K17A, A44P
Description: as §1, §2, §3

Q91A = biological target: T5, Q91A
T5 construct: also called hCD27 Q91A
T5 receptor chain: T1 receptor chain with A44P, Q91A
Description: as §1, §2, §3

F28A = biological target: T6, F28A
T6 construct: also called hCD27 F28A
T6 receptor chain: T1 receptor chain with F28A, A44P
Description: as §1, §2, §3

S63A = biological target: T7, S63A
T7 construct: also called hCD27 S63A
T7 receptor chain: T1 receptor chain with A44P, S63A
Description: as §1, §2, §3

R10A = biological target: T8, R10A
T8 construct: also called hCD27 R10A
T8 receptor chain: T1 receptor chain with R10A, A44P
Description: as §1, §2, §3

E9A = biological target: T9, E9A
T9 construct: also called hCD27 E9A
T9 receptor chain: T1 receptor chain with E9A, A44P
Description: as §1, §2, §3

R93A = biological target: T10, R93A
T10 construct: also called hCD27 R93A
T10 receptor chain: T1 receptor chain with A44P, R93A
Description: as §1, §2, §3

B1: hCD27.131A (mouse parental 131A) (antibody, mouse IgG1, V domains shown)
VH: QIQLVQSGPELKKPGETVKISCKASGYTFTNYGMNWVKQAPGKGLKWMGWINTNTGEPTYAEEFKGRFAFSLETSATTAYLQINNLKNEDTATYFCAREGDAMDYWGQGTSVTVSS
VL: QIVLTQSPAIMSASPGEKVTMTCSASSSVSYMHWYQQKSGTSPKRWIYDTSKLASGVPARFSGSGSGTSYSLTISSMEAEDAATYYCQQWNSYPFTFGSGTKLEIK
notes: Mouse IgG1 antibody; also called mouse hCD27.131A
P44A
  binding, WT hCD27 = 100 (GM FITC): 158%
D43A
  binding, WT hCD27 = 100 (GM FITC): 194%
G16A
  binding, WT hCD27 = 100 (GM FITC): 94.8%
K17A
  binding, WT hCD27 = 100 (GM FITC): 103%
Q91A
  binding, WT hCD27 = 100 (GM FITC): 148%
F28A
  binding, WT hCD27 = 100 (GM FITC): 106%
S63A
  binding, WT hCD27 = 100 (GM FITC): 162%
R10A
  binding, WT hCD27 = 100 (GM FITC): 103%
E9A
  binding, WT hCD27 = 100 (GM FITC): 96.7%
R93A
  binding, WT hCD27 = 100 (GM FITC): 125%
